Measured values reported in publication PMC9528458.

Target: Fzd of the reconstituted xWnt8-Fzd complexes (Fzd4 and FZD5) in nanodiscs

B1: Xenopus laevis Wnt8 (ligand)
chain: AWSVNNFLMTGPKAYLTYSASVAVGAQNGIEECKYQFAWERWNCPESTLQLATHNGLRSATRETSFVHAISSAGVMYTLTRNCSMGDFDNCGCDDSRNGRIGGRGWVWGGCSDNAEFGERISKLFVDGLETGQDARALMNLHNNEAGRLAVKETMKRTCKCHGISGSCSIQTCWLQLAEFRDIGNHLKIKHDQALKLEMDKRKMRSGNSADNRGAIADAFSSVAGSELIFLEDSPDYCLKNISLGLQGTEGRECLQSGKNLSQWERRSCKRLCTDCGLRVEEKKTEIISSCNCKFHWCCTVKCEQCKQVVIKHFCARRERDSNMLNTKRKNRGHRR
For B1, the occupancy (percent Wnt-bound Fzd after reconstitution) was 30 to 40%.
